Measured values taken from PMC7496822 (Arthritis & Rheumatology (Hoboken, N.j.), 2020).

Experiments:
Test in all cases: ELISA
SSA/Ro60 = SSA/Ro60 (Homo sapiens (assumed), UniProt P10155)
SSA/Ro52 = SSA/Ro52 (Homo sapiens (assumed), UniProt P19474)
[1] = biological target: insulin from bovine pancreas (Bos taurus, UniProt P01317)
actin from bovine muscle = actin from bovine muscle (Bos taurus, UniProt P68138)

Measured: binding result

Sequence of SSA/Ro52 (P19474 whole entry): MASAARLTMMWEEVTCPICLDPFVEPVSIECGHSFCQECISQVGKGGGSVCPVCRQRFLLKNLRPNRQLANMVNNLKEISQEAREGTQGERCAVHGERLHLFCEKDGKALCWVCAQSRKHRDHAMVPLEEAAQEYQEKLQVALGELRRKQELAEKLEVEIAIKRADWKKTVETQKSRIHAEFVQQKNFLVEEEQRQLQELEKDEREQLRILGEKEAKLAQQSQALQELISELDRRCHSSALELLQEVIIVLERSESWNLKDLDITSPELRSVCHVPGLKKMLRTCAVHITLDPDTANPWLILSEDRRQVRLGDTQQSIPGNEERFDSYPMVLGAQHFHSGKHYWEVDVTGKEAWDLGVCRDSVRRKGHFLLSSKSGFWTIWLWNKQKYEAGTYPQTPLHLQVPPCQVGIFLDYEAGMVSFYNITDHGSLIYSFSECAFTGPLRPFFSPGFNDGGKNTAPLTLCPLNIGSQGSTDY
Sequence of insulin from bovine pancreas (P01317 whole entry, looked up): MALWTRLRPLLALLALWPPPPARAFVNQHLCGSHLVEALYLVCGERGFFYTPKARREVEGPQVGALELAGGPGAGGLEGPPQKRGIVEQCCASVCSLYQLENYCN
Sequence of SSA/Ro60 (P10155 whole entry): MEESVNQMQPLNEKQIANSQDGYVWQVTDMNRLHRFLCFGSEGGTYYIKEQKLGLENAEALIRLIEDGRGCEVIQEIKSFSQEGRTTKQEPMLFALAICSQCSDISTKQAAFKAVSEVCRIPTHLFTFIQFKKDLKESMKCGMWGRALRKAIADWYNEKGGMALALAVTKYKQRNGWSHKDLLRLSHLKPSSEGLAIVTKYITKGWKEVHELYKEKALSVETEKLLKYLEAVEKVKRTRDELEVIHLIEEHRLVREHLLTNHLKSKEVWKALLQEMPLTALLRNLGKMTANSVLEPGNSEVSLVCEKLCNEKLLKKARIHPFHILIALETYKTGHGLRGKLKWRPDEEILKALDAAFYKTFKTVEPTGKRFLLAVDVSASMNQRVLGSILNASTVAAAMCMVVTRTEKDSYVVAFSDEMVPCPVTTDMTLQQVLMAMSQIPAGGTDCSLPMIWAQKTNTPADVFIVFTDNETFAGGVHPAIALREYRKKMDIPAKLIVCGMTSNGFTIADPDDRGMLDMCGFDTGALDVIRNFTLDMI

B1: recombinant IgM of MALT lymphoma salivary gland sample M5 (antibody, V domains shown)
VH: EVQLVESGGGLVQPGGSLRLSCAASGFTFSSYWMSWVRQAPGKGLEWVANIKEDGGGKYYVDSVKGRFTISRDNAKNSLYLQMNSLRVEDTAVYYCARGDFWSGDYIDAFDIWGQGTLVTVSS
VL: EIVMTQSPATLSVSPGERATLSCRASQSVSSNLAWYQQKPGQPPRLLIYGASTRATGIPARFSGGGSGTEFTLTISSLQSEDFALYYCQHYNNWPPWTFGQGTKVEIK
no binding (tested: up to 1 μg/ml IgM): all assays above

B2: recombinant IgM of MALT lymphoma salivary gland sample M11 (antibody, V domains shown)
VH: QVQLVQSGAEVKKPGSSVKVSCRASGGTFSRYAISWVRQAPGQGLEWMGGIIPLFNTPNYAQKFQGRVTIIADESTSTAYMELSSLRSDDTAVYYCAREGIAAAVNPFDYWGQGTLVTVSS
VL: not shown
no binding (tested: up to 1 μg/ml IgM): all assays above

B3: recombinant IgM of MALT lymphoma salivary gland sample M22 (antibody, V domains shown)
VH: QVQLVQSGAEVKKSGSSVKVSCKASGGTFNNYAINWVRQAPGQGLEWMGGIIPIFGTPNYAQKFQGRVAITADKSTGTAYMELSSLRSEDTAVYYCARGSNDYGDNVPVQPYHYWGQGTLVTVSS
VL: EIVLTQSPGTLSLSPGERATLSCRASQSISSTYLAWYQQKPGQAPRLLIYGASSRATGIPDRFSGSGSGTDFTLTISRLEPEDFAMYYCQQFGSSPQTFGQGTKLEIK
no binding (tested: up to 1 μg/ml IgM): all assays above
